First the molecules themselves.
B1: single-ring mutant (SR1) of GroEL (R452E, E461A, S463A and V464A) (natural protein, E. coli, UniProt P0A6F5 1-548, looked up)
chain: MAAKDVKFGNDARVKMLRGVNVLADAVKVTLGPKGRNVVLDKSFGAPTITKDGVSVAREIELEDKFENMGAQMVKEVASKANDAAGDGTTTATVLAQAIITEGLKAVAAGMNPMDLKRGIDKAVTAAVEELKALSVPCSDSKAIAQVGTISANSDETVGKLIAEAMDKVGKEGVITVEDGTGLQDELDVVEGMQFDRGYLSPYFINKPETGAVELESPFILLADKKISNIREMLPVLEAVAKAGKPLLIIAEDVEGEALATLVVNTMRGIVKVAAVKAPGFGDRRKAMLQDIATLTGGTVISEEIGMELEKATLEDLGQAKRVVINKDTTTIIDGVGEEAAIQGRVAQIRQQIEEATSDYDREKLQERVAKLAGGVAVIKVGAATEVEMKEKKARVEDALHATRAAVEEGVVAGGGVALIRVASKLADLRGQNEDQNVGIKVALRAMEAPLEQIVLNCGEAPAAVANTVKGGDGNYGYNAATEEYGNMIDMGILDPTKVTRSALQYAASVAGLMITTECMVTDLPKNDAADLGAAGGMGGMGGMGGMM
notes: GroEL chaperonin of Escherichia coli with four mutations at the contact sites between the two rings, forming a single heptameric ring; Non-labeled; heptameric single ring; concentrations are of the heptamer; The PDB entries hold the wild-type double-ring parent; also called L (ligand); heptameric SR1; source: expression plasmid constructed from pEL-WT; expressed and purified as described …
B2: Wild-type E. coli GroES, 15N-labeled form (native heptamer) (natural protein)
chain: MNIRPLHDRVIVKRKEVETKSAGGIVLTGSAAAKSTRGEVLAVGNGRILENGEVKPLDVKVGDIVIFNDGYGVKSEKIDNEEVLIMSESDILAIVEA
modifications: uniformly 15N-labeled
notes: GroES co-chaperonin of Escherichia coli, wild type; concentrations are of the heptamer; also called 15N-labeled GroES; P (protein); source: E. coli BL21(DE3), expression plasmid pETESwild, purified as described previously

Common to all, as to settings: both partners purified
Test [1] deals with B2. The test can be described thus: NMR titration; van't Hoff plot of the Kb values from the NMR titrations at 20, 25 and 30°C; 3.0 mM ADP, 100 mM KCl, 10 mM MgCl2, pH 7.5.
Test [2] concerns the target B1. The test can be described thus: NMR titration; 1H-15N HSQC of 21.4 uM 15N-labeled GroES with 0-42 uM SR1 (separate samples); 30°C; 3.0 mM ADP, 20 mM Tris-HCl, 100 mM KCl, 10 mM MgCl2, pH 7.5, 10% D2O; fit to single-step 1:1 binding (Eq 6).
Test [3] concerns the target B1. The test can be described thus: NMR titration; 1H-15N HSQC of 21.4 uM 15N-labeled GroES with 0-42 uM SR1 (separate samples); 25°C; 3 mM ATP, 20 mM Tris-HCl, 100 mM KCl, 10 mM MgCl2, pH 7.5, 10% D2O; fit to single-step 1:1 binding (Eq 6).
Test [4] deals with B1. Put plainly: NMR titration; 1H-15N HSQC of 21.4 uM 15N-labeled GroES with 0-42 uM SR1 (separate samples); 25°C; 3.0 mM ADP, 20 mM Tris-HCl, 100 mM KCl, 10 mM MgCl2, pH 7.5, 10% D2O; fit to single-step 1:1 binding (Eq 6).
Test [5] concerns the target B1. The test can be described thus: NMR titration; 1H-15N HSQC of 21.4 uM 15N-labeled GroES with 0-42 uM SR1 (separate samples); 20°C; 3.0 mM ADP, 20 mM Tris-HCl, 100 mM KCl, 10 mM MgCl2, pH 7.5, 10% D2O; fit to single-step 1:1 binding (Eq 6).

With B1, the dH in test [1] stood at 8.39 ± 1.15 kcal/mol.

With B2, the Ka in test [2] is 223000 M⁻¹; in test [3], 2.35e+06 M⁻¹; in test [4], 189000 M⁻¹; in test [5], 141000 M⁻¹.
